According to patent US20230357348A1 (AstraZeneca / MedImmune, published 2023):
Starred links: 1 amine or outer side, 2 acyl side, 3 side chain; linkers in the order of their positions; H or OH if unused. Non-standard residues stand in square brackets, D forms with d. Groups on a side chain read outwards from the residue. No end group written: not given here. *: point of attachment. C18 diacid = O=C(O)CCCCCCCCCCCCCCCCC(=O)*; γGlu = O=C(O)[C@H](CCC(=O)[*:2])N[*:1]; αMeF = C[C@](N)(Cc1ccccc1)C(=O)O; AEEA = NCCOCCOCC(=O)O; Aib = CC(C)(N)C(=O)O

B1: Peptide 422 (peptide)
peptide: H[Aib]QGTFTSDVSK[αMeF]LDRK([AEEA-AEEA-γGlu-C18 diacid])RAQDFVRWLL[Aib]TE-NH2
modifications: N-terminus assumed
SMILES: CC(C)C[C@H](NC(=O)[C@H](Cc1c[nH]c2ccccc12)NC(=O)[C@H](CCCNC(=N)N)NC(=O)[C@@H](NC(=O)[C@H](Cc1ccccc1)NC(=O)[C@H](CC(=O)O)NC(=O)[C@H](CCC(N)=O)NC(=O)[C@H](C)NC(=O)[C@H](CCCNC(=N)N)NC(=O)[C@H](CCCCNC(=O)COCCOCCNC(=O)COCCOCCNC(=O)CC[C@H](NC(=O)CCCCCCCCCCCCCCCCC(=O)O)C(=O)O)NC(=O)[C@H](CCCNC(=N)N)NC(=O)[C@H](CC(=O)O)NC(=O)[C@H](CC(C)C)NC(=O)[C@](C)(Cc1ccccc1)NC(=O)[C@H](CCCCN)NC(=O)[C@H](CO)NC(=O)[C@@H](NC(=O)[C@H](CC(=O)O)NC(=O)[C@H](CO)NC(=O)[C@@H](NC(=O)[C@H](Cc1ccccc1)NC(=O)[C@@H](NC(=O)CNC(=O)[C@H](CCC(N)=O)NC(=O)C(C)(C)NC(=O)[C@@H](N)Cc1c[nH]cn1)[C@@H](C)O)[C@@H](C)O)C(C)C)C(C)C)C(=O)N[C@@H](CC(C)C)C(=O)NC(C)(C)C(=O)N[C@H](C(=O)N[C@@H](CCC(=O)O)C(N)=O)[C@@H](C)O
B2: Peptide 423 (peptide)
peptide: H[Aib]QGTFTSDVSK[αMeF]LDKK([AEEA-AEEA-γGlu-C18 diacid])RAQDFVRWLK[Aib]TE-OH
modifications: N-terminus assumed
SMILES: CC(C)C[C@H](NC(=O)[C@H](Cc1c[nH]c2ccccc12)NC(=O)[C@H](CCCNC(=N)N)NC(=O)[C@@H](NC(=O)[C@H](Cc1ccccc1)NC(=O)[C@H](CC(=O)O)NC(=O)[C@H](CCC(N)=O)NC(=O)[C@H](C)NC(=O)[C@H](CCCNC(=N)N)NC(=O)[C@H](CCCCNC(=O)COCCOCCNC(=O)COCCOCCNC(=O)CC[C@H](NC(=O)CCCCCCCCCCCCCCCCC(=O)O)C(=O)O)NC(=O)[C@H](CCCCN)NC(=O)[C@H](CC(=O)O)NC(=O)[C@H](CC(C)C)NC(=O)[C@](C)(Cc1ccccc1)NC(=O)[C@H](CCCCN)NC(=O)[C@H](CO)NC(=O)[C@@H](NC(=O)[C@H](CC(=O)O)NC(=O)[C@H](CO)NC(=O)[C@@H](NC(=O)[C@H](Cc1ccccc1)NC(=O)[C@@H](NC(=O)CNC(=O)[C@H](CCC(N)=O)NC(=O)C(C)(C)NC(=O)[C@@H](N)Cc1c[nH]cn1)[C@@H](C)O)[C@@H](C)O)C(C)C)C(C)C)C(=O)N[C@@H](CCCCN)C(=O)NC(C)(C)C(=O)N[C@H](C(=O)N[C@@H](CCC(=O)O)C(=O)O)[C@@H](C)O
B3: Peptide 424 (peptide)
peptide: H[Aib]QGTFTSDVSK[αMeF]LDKK([AEEA-AEEA-γGlu-C18 diacid])RAQDFVRWLL[Aib]TK-OH
modifications: N-terminus assumed
SMILES: CC(C)C[C@H](NC(=O)[C@H](Cc1c[nH]c2ccccc12)NC(=O)[C@H](CCCNC(=N)N)NC(=O)[C@@H](NC(=O)[C@H](Cc1ccccc1)NC(=O)[C@H](CC(=O)O)NC(=O)[C@H](CCC(N)=O)NC(=O)[C@H](C)NC(=O)[C@H](CCCNC(=N)N)NC(=O)[C@H](CCCCNC(=O)COCCOCCNC(=O)COCCOCCNC(=O)CC[C@H](NC(=O)CCCCCCCCCCCCCCCCC(=O)O)C(=O)O)NC(=O)[C@H](CCCCN)NC(=O)[C@H](CC(=O)O)NC(=O)[C@H](CC(C)C)NC(=O)[C@](C)(Cc1ccccc1)NC(=O)[C@H](CCCCN)NC(=O)[C@H](CO)NC(=O)[C@@H](NC(=O)[C@H](CC(=O)O)NC(=O)[C@H](CO)NC(=O)[C@@H](NC(=O)[C@H](Cc1ccccc1)NC(=O)[C@@H](NC(=O)CNC(=O)[C@H](CCC(N)=O)NC(=O)C(C)(C)NC(=O)[C@@H](N)Cc1c[nH]cn1)[C@@H](C)O)[C@@H](C)O)C(C)C)C(C)C)C(=O)N[C@@H](CC(C)C)C(=O)NC(C)(C)C(=O)N[C@H](C(=O)N[C@@H](CCCCN)C(=O)O)[C@@H](C)O
B4: Peptide 425 (peptide)
peptide: H[Aib]QGTFTSDVSK[αMeF]LDKK([AEEA-AEEA-γGlu-C18 diacid])RAQDFVRWLKA[Aib]G-OH
modifications: N-terminus assumed
SMILES: CC(C)C[C@H](NC(=O)[C@H](Cc1c[nH]c2ccccc12)NC(=O)[C@H](CCCNC(=N)N)NC(=O)[C@@H](NC(=O)[C@H](Cc1ccccc1)NC(=O)[C@H](CC(=O)O)NC(=O)[C@H](CCC(N)=O)NC(=O)[C@H](C)NC(=O)[C@H](CCCNC(=N)N)NC(=O)[C@H](CCCCNC(=O)COCCOCCNC(=O)COCCOCCNC(=O)CC[C@H](NC(=O)CCCCCCCCCCCCCCCCC(=O)O)C(=O)O)NC(=O)[C@H](CCCCN)NC(=O)[C@H](CC(=O)O)NC(=O)[C@H](CC(C)C)NC(=O)[C@](C)(Cc1ccccc1)NC(=O)[C@H](CCCCN)NC(=O)[C@H](CO)NC(=O)[C@@H](NC(=O)[C@H](CC(=O)O)NC(=O)[C@H](CO)NC(=O)[C@@H](NC(=O)[C@H](Cc1ccccc1)NC(=O)[C@@H](NC(=O)CNC(=O)[C@H](CCC(N)=O)NC(=O)C(C)(C)NC(=O)[C@@H](N)Cc1c[nH]cn1)[C@@H](C)O)[C@@H](C)O)C(C)C)C(C)C)C(=O)N[C@@H](CCCCN)C(=O)N[C@@H](C)C(=O)NC(C)(C)C(=O)NCC(=O)O
B5: Peptide 426 (peptide)
peptide: H[Aib]QGTFTSDVSK[αMeF]LDKK([AEEA-AEEA-γGlu-C18 diacid])RAQDFVRWLLR[Aib]K-OH
modifications: N-terminus assumed
SMILES: CC(C)C[C@H](NC(=O)[C@H](Cc1c[nH]c2ccccc12)NC(=O)[C@H](CCCNC(=N)N)NC(=O)[C@@H](NC(=O)[C@H](Cc1ccccc1)NC(=O)[C@H](CC(=O)O)NC(=O)[C@H](CCC(N)=O)NC(=O)[C@H](C)NC(=O)[C@H](CCCNC(=N)N)NC(=O)[C@H](CCCCNC(=O)COCCOCCNC(=O)COCCOCCNC(=O)CC[C@H](NC(=O)CCCCCCCCCCCCCCCCC(=O)O)C(=O)O)NC(=O)[C@H](CCCCN)NC(=O)[C@H](CC(=O)O)NC(=O)[C@H](CC(C)C)NC(=O)[C@](C)(Cc1ccccc1)NC(=O)[C@H](CCCCN)NC(=O)[C@H](CO)NC(=O)[C@@H](NC(=O)[C@H](CC(=O)O)NC(=O)[C@H](CO)NC(=O)[C@@H](NC(=O)[C@H](Cc1ccccc1)NC(=O)[C@@H](NC(=O)CNC(=O)[C@H](CCC(N)=O)NC(=O)C(C)(C)NC(=O)[C@@H](N)Cc1c[nH]cn1)[C@@H](C)O)[C@@H](C)O)C(C)C)C(C)C)C(=O)N[C@@H](CC(C)C)C(=O)N[C@@H](CCCNC(=N)N)C(=O)NC(C)(C)C(=O)N[C@@H](CCCCN)C(=O)O
B6: Peptide 429 (peptide)
peptide: H[Aib]QGTFTSDVSK[αMeF]LDSK([AEEA-AEEA-γGlu-C18 diacid])RAQDFVRWLEA[Aib]G-NH2
modifications: N-terminus assumed
SMILES: CC(C)C[C@H](NC(=O)[C@H](Cc1c[nH]c2ccccc12)NC(=O)[C@H](CCCNC(=N)N)NC(=O)[C@@H](NC(=O)[C@H](Cc1ccccc1)NC(=O)[C@H](CC(=O)O)NC(=O)[C@H](CCC(N)=O)NC(=O)[C@H](C)NC(=O)[C@H](CCCNC(=N)N)NC(=O)[C@H](CCCCNC(=O)COCCOCCNC(=O)COCCOCCNC(=O)CC[C@H](NC(=O)CCCCCCCCCCCCCCCCC(=O)O)C(=O)O)NC(=O)[C@H](CO)NC(=O)[C@H](CC(=O)O)NC(=O)[C@H](CC(C)C)NC(=O)[C@](C)(Cc1ccccc1)NC(=O)[C@H](CCCCN)NC(=O)[C@H](CO)NC(=O)[C@@H](NC(=O)[C@H](CC(=O)O)NC(=O)[C@H](CO)NC(=O)[C@@H](NC(=O)[C@H](Cc1ccccc1)NC(=O)[C@@H](NC(=O)CNC(=O)[C@H](CCC(N)=O)NC(=O)C(C)(C)NC(=O)[C@@H](N)Cc1c[nH]cn1)[C@@H](C)O)[C@@H](C)O)C(C)C)C(C)C)C(=O)N[C@@H](CCC(=O)O)C(=O)N[C@@H](C)C(=O)NC(C)(C)C(=O)NCC(N)=O
B7: Peptide 430 (peptide)
peptide: H[Aib]QGTFTSDVSK[αMeF]LDSK([AEEA-AEEA-γGlu-γGlu-C18 diacid])RAQDFVRWLEA[Aib]G-NH2
modifications: N-terminus assumed
SMILES: CC(C)C[C@H](NC(=O)[C@H](Cc1c[nH]c2ccccc12)NC(=O)[C@H](CCCNC(=N)N)NC(=O)[C@@H](NC(=O)[C@H](Cc1ccccc1)NC(=O)[C@H](CC(=O)O)NC(=O)[C@H](CCC(N)=O)NC(=O)[C@H](C)NC(=O)[C@H](CCCNC(=N)N)NC(=O)[C@H](CCCCNC(=O)COCCOCCNC(=O)COCCOCCNC(=O)CC[C@H](NC(=O)CC[C@H](NC(=O)CCCCCCCCCCCCCCCCC(=O)O)C(=O)O)C(=O)O)NC(=O)[C@H](CO)NC(=O)[C@H](CC(=O)O)NC(=O)[C@H](CC(C)C)NC(=O)[C@](C)(Cc1ccccc1)NC(=O)[C@H](CCCCN)NC(=O)[C@H](CO)NC(=O)[C@@H](NC(=O)[C@H](CC(=O)O)NC(=O)[C@H](CO)NC(=O)[C@@H](NC(=O)[C@H](Cc1ccccc1)NC(=O)[C@@H](NC(=O)CNC(=O)[C@H](CCC(N)=O)NC(=O)C(C)(C)NC(=O)[C@@H](N)Cc1c[nH]cn1)[C@@H](C)O)[C@@H](C)O)C(C)C)C(C)C)C(=O)N[C@@H](CCC(=O)O)C(=O)N[C@@H](C)C(=O)NC(C)(C)C(=O)NCC(N)=O

Tests used:
[1] = molecular target: human GLP-1 receptor (hGLP-1R) (human, UniProt P43220 24-463); assay: cell-based or functional assay
[2] = molecular target: human glucagon receptor (hGCGR) (human, UniProt P47871 26-477); assay: cell-based or functional assay
human glucagon receptor (hGCGR), sequence (P47871 26-477): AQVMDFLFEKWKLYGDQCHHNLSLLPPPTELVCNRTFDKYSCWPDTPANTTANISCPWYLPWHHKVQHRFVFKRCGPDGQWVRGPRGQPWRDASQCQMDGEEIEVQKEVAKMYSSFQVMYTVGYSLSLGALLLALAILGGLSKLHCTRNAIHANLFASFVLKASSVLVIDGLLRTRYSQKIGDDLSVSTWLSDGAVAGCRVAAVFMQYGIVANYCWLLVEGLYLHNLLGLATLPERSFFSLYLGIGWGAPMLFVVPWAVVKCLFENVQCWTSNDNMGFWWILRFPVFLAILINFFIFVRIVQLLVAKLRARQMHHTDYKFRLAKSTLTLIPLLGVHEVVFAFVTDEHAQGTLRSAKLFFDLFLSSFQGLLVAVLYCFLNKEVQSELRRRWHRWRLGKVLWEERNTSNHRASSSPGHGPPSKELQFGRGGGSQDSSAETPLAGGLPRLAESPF

| Binder | hGLP-1R EC50 (pM) [1] [pM] | hGluc-R EC50 (pM) [2] [pM] |
| --- | --- | --- |
| B1 | 27.6 | 123 |
| B2 | 26.1 | 2220 |
| B3 | 15.5 | 129 |
| B4 | 11.5 | 827 |
| B5 | 7.3 | 61.2 |
| H[Aib]QGTFTSDVSK[αMeF]LDTK([AEEA-AEEA-γGlu-C18 diacid])RARDFVQWLLE[Aib]G (not fully specified (C-terminus)) [Peptide 427] | 12.4 | 47.2 |
| H[Aib]QGTFTSDVSK[αMeF]LDTK([AEEA-AEEA-γGlu-γGlu-C18 diacid])RARDFVQWLLE[Aib]G (not fully specified (C-terminus)) [Peptide 428] | 33.1 | 10.5 |
| B6 | 15 | 144 |
| B7 | 24.4 | 160 |
